Targets include GRIP2_5, Q9C0E4; SNX27, Q96L92; NHERF4_2, Q86UT5; PDLIM1, O00151; HTRA2, O43464; CASK, O14936; LNX1_1, Q8TBB1.
Experiment in all cases: holdup assay
Common to all, as to design: key: below the threshold = too weak to quantify, mostly under pKd 3.1 to 4

Another assay concerns the target IL16_3, Q14005. The following applies: plain residues with an end cap or a label only (N-terminal biotin on a linker: ttds).
The next assay has as its target T1, RHPN1, Q8TCX5.
T1 sequence (Q8TCX5 508-602, limits assumed, looked up): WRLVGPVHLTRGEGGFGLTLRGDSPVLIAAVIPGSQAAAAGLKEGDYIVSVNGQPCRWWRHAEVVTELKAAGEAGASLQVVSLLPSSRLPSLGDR
The conditions noted are these: plain residues with an end cap or a label only (N-terminal biotin on a linker: ttds).

The target in a further assay is T2, LRRC7, Q96NW7.
T2 sequence (Q96NW7 1440-1537, limits assumed, looked up): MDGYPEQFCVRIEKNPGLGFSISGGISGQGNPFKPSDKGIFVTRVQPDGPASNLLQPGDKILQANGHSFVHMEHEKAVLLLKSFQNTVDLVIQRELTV

In another assay the target is MAST1, Q9Y2H9. The conditions noted are these: plain residues with an end cap or a label only (N-terminal biotin on a linker: ttds).
Sequence of MAST1, Q9Y2H9 (Q9Y2H9 962-1065): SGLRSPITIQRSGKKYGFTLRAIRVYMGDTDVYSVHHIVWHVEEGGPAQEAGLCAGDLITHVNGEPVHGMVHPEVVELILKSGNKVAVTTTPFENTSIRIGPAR
Another assay deals with FRMPD2_3, Q68DX3. The conditions noted are these: plain residues with an end cap or a label only (N-terminal biotin on a linker: ttds).
Sequence of FRMPD2_3, Q68DX3 (Q68DX3 1073-1166): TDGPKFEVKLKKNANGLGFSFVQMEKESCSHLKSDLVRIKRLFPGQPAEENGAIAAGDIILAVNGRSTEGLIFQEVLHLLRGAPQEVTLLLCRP
In the next assay the target is GRID2IP_1, A4D2P6. The following applies: plain residues with an end cap or a label only (N-terminal biotin on a linker: ttds).
Sequence of GRID2IP_1, A4D2P6 (A4D2P6 1-87): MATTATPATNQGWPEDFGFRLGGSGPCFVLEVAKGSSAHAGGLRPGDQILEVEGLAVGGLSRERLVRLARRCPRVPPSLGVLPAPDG
For a further assay, the target named is T3, TX1BP3, O14907.
T3 sequence (O14907 10-122, limits assumed, looked up): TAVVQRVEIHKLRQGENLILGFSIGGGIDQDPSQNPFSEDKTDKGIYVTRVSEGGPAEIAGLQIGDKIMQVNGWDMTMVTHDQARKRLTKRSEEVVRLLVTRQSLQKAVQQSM

Another assay addresses DLG2_3, Q15700. The conditions noted are these: plain residues with an end cap or a label only (N-terminal biotin on a linker: ttds).
The target in another assay is TJP1_3, Q07157. The conditions noted are these: plain residues with an end cap or a label only (N-terminal biotin on a linker: ttds).
Sequence of TJP1_3, Q07157 (Q07157 416-512): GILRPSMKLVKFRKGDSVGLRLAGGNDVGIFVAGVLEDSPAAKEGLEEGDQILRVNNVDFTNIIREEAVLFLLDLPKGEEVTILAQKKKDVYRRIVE
Another assay deals with T4, SNTG2, Q9NY99.
T4 sequence (Q9NY99 68-166, limits assumed, looked up): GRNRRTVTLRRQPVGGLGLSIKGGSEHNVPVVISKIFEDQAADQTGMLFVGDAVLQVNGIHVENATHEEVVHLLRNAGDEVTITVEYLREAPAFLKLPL

For a further assay, the target named is T5, HTRA4, P83105.
T5 sequence (P83105 378-476, limits assumed, looked up): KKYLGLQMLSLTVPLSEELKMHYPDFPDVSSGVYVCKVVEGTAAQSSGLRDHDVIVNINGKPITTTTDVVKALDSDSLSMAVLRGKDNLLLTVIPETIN
The following applies: plain residues with an end cap or a label only (N-terminal biotin on a linker: ttds).

The next assay addresses T6, LNX2_3, Q8N448.
T6 sequence (Q8N448 463-564, limits assumed, looked up): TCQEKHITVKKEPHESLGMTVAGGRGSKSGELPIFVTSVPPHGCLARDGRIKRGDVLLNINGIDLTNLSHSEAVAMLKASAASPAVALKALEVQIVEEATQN
The conditions noted are these: plain residues with an end cap or a label only (N-terminal biotin on a linker: ttds).

Another assay has as its target GRIP2_3, Q9C0E4. The following applies: plain residues with an end cap or a label only (N-terminal biotin on a linker: ttds).
The target in another assay is T7, ARHGAP21, Q5T5U3.
T7 sequence (Q5T5U3 45-169, limits assumed, looked up): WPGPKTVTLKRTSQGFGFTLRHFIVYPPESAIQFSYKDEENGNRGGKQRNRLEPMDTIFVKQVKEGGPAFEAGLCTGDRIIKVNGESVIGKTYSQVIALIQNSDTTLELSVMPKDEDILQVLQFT

A further assay has as its target T8, PTPN13_1, Q12923.
T8 sequence (Q12923 1088-1188, limits assumed, looked up): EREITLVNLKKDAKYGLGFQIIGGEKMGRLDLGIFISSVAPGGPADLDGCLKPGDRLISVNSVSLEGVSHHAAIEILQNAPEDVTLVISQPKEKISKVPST

The target of a further assay is T9, LNX2_2, Q8N448.
T9 sequence (Q8N448 334-432, limits assumed, looked up): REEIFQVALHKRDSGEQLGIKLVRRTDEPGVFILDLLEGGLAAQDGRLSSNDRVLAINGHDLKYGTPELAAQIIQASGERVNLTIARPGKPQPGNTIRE

The target in another assay is T10, PARD3B_1, Q8TEW8.
T10 sequence (Q8TEW8 196-299, limits assumed, looked up): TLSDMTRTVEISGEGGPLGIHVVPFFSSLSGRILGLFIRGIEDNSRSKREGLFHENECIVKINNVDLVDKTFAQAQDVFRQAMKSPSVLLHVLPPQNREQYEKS

The target in the next assay is T11, APBA2_2, Q99767.
T11 sequence (Q99767 654-744, limits assumed, looked up): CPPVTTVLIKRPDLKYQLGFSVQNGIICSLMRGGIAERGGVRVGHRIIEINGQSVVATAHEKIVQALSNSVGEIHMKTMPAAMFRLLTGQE
The following applies: plain residues with an end cap or a label only (N-terminal biotin on a linker: ttds).

The mark [1] stands for this setting: plain residues with an end cap or a label only (N-terminal biotin on a linker: ttds).
Setting [2] is: plain residues with an end cap or a label only (N-terminal biotin on a linker: ado-ado).

Sequence of IL16_3, Q14005 (Q14005 1107-1207): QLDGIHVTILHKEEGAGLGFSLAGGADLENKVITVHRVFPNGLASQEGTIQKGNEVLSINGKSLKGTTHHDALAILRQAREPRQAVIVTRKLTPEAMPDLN
Sequence of PDLIM1, O00151 (O00151 1-87): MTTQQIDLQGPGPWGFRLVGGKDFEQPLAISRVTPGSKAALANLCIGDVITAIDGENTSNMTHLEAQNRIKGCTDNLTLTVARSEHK
Sequence of GRIP2_3, Q9C0E4 (Q9C0E4 238-339): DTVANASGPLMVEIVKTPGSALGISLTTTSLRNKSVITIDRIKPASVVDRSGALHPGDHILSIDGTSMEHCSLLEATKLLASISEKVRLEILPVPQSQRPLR
Sequence of CASK, O14936 (O14936 487-570): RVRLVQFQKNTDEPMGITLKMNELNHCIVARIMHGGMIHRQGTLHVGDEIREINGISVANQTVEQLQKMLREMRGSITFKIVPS
Sequence of LNX1_1, Q8TBB1 (Q8TBB1 261-371): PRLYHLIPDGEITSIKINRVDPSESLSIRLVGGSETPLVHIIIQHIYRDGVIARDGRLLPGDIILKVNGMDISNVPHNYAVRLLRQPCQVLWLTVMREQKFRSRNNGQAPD
Sequence of NHERF4_2, Q86UT5 (Q86UT5 220-308): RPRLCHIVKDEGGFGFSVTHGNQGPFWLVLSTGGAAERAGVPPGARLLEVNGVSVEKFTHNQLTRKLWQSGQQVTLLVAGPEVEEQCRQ
Sequence of HTRA2, O43464 (O43464 355-458): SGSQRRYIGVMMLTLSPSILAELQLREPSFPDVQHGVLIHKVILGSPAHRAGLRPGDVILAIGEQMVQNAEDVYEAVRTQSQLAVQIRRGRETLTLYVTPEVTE
Sequence of GRIP2_5, Q9C0E4 (Q9C0E4 544-642): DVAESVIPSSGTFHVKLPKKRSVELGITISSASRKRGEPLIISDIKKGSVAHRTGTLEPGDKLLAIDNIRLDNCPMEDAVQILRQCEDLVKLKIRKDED

Regarding RSLEEEESQL [GRASP, Q7Z6J2], the pKd result in the assay with IL16_3, Q14005 was “below the threshold”; with RHPN1, Q8TCX5, 4.71; with LRRC7, Q96NW7 (setting [1]), “below the threshold”; in the assay with GRIP2_5, Q9C0E4 (setting [1]), “below the threshold”; in the assay with MAST1, Q9Y2H9, 4.83; with SNX27, Q96L92 (setting [1]), 5.69. Also, the pKd was 4.08 in the assay with FRMPD2_3, Q68DX3; “below the threshold” in the assay with NHERF4_2, Q86UT5 (setting [1]); 3.85 in the assay with PDLIM1, O00151 (setting [1]); “below the threshold” in the assay with GRID2IP_1, A4D2P6; 3.84 with TX1BP3, O14907 (setting [1]); “below the threshold” in the assay with DLG2_3, Q15700. Also, the pKd with HTRA2, O43464 (setting [1]) is 3.69; with TJP1_3, Q07157, “below the threshold”; with SNTG2, Q9NY99 (setting [1]) it was “below the threshold”; in the assay with CASK, O14936 (setting [1]), “below the threshold”; in the assay with HTRA4, P83105, “below the threshold”; with LNX2_3, Q8N448, “below the threshold”. Moreover, the pKd result with GRIP2_3, Q9C0E4 was “below the threshold”; in the assay with ARHGAP21, Q5T5U3 (setting [1]) it was 3.83; in the assay with LNX1_1, Q8TBB1 (setting [1]), “below the threshold”; in the assay with PTPN13_1, Q12923 (setting [1]) it was 3.63; with LNX2_2, Q8N448 (setting [1]), “below the threshold”; with PARD3B_1, Q8TEW8 (setting [1]), 4.28. The pKd result in the assay with APBA2_2, Q99767 is “below the threshold”.

With SRPQRTQTQV [HPV67-E6, A4U7F2], the pKd entry with IL16_3, Q14005 is “below the threshold”; with RHPN1, Q8TCX5 it was 3.84; in the assay with LRRC7, Q96NW7 (setting [1]) it was “below the threshold”; with GRIP2_5, Q9C0E4 (setting [1]) it was “below the threshold”; with MAST1, Q9Y2H9 it was 4.47; with SNX27, Q96L92 (setting [1]), 3.98. Besides, the pKd result with FRMPD2_3, Q68DX3 is “below the threshold”; with NHERF4_2, Q86UT5 (setting [1]), “below the threshold”; in the assay with PDLIM1, O00151 (setting [1]), “below the threshold”; in the assay with GRID2IP_1, A4D2P6, “below the threshold”; with TX1BP3, O14907 (setting [1]), 4.03; with DLG2_3, Q15700, 4.52. The pKd entry with HTRA2, O43464 (setting [1]) is “below the threshold”; in the assay with TJP1_3, Q07157 it was “below the threshold”; with SNTG2, Q9NY99 (setting [1]), 3.98; in the assay with CASK, O14936 (setting [1]), “below the threshold”; with HTRA4, P83105, “below the threshold”; in the assay with LNX2_3, Q8N448, “below the threshold”. For the same molecule, the pKd entry was “below the threshold” with GRIP2_3, Q9C0E4; “below the threshold” with ARHGAP21, Q5T5U3 (setting [1]); “below the threshold” with LNX1_1, Q8TBB1 (setting [1]); “below the threshold” with PTPN13_1, Q12923 (setting [1]); 3.6 in the assay with LNX2_2, Q8N448 (setting [1]); “below the threshold” with PARD3B_1, Q8TEW8 (setting [1]). For the same molecule, the pKd result with APBA2_2, Q99767 is recorded as “below the threshold”.

On to KRPEMTSSSV [MUC3B, MUC3A, Q02505;Q9H195], for which the pKd in the assay with SNX27, Q96L92 (setting [2]) is 5.03; with TX1BP3, O14907 (setting [2]), 4.5; with SNTG2, Q9NY99 (setting [2]), 3.9; with CASK, O14936 (setting [2]), “below the threshold”; in the assay with ARHGAP21, Q5T5U3 (setting [2]) it was 1.86; in the assay with PTPN13_1, Q12923 (setting [2]), “below the threshold”. For the same molecule, the pKd entry with LNX2_2, Q8N448 (setting [2]) is “below the threshold”.

With SVWLRKETRV [CYSLTR2, Q9NS75], the pKd result with IL16_3, Q14005 was “below the threshold”; in the assay with RHPN1, Q8TCX5, 4.08; with LRRC7, Q96NW7 (setting [1]), 3.65; with GRIP2_5, Q9C0E4 (setting [1]), “below the threshold”; with MAST1, Q9Y2H9, 5.29; with SNX27, Q96L92 (setting [1]) it was 4.95. Also, the pKd with FRMPD2_3, Q68DX3 is 3.57; with NHERF4_2, Q86UT5 (setting [1]) it was “below the threshold”; with PDLIM1, O00151 (setting [1]) it was “below the threshold”; with GRID2IP_1, A4D2P6, “below the threshold”; with TX1BP3, O14907 (setting [1]), 4.75; in the assay with DLG2_3, Q15700, 5.4. Further, the pKd with HTRA2, O43464 (setting [1]) is 3.5; with TJP1_3, Q07157, “below the threshold”; in the assay with SNTG2, Q9NY99 (setting [1]) it was 5.09; in the assay with CASK, O14936 (setting [1]) it was “below the threshold”; with HTRA4, P83105, 3.38; with LNX2_3, Q8N448, “below the threshold”. For the same molecule, the pKd entry with GRIP2_3, Q9C0E4 is “below the threshold”; with ARHGAP21, Q5T5U3 (setting [1]) it was “below the threshold”; with LNX1_1, Q8TBB1 (setting [1]), 3.59; with PTPN13_1, Q12923 (setting [1]) it was 3.43; in the assay with LNX2_2, Q8N448 (setting [1]), 3.77; with PARD3B_1, Q8TEW8 (setting [1]) it was “below the threshold”. In addition, in the assay with APBA2_2, Q99767, the pKd entry is reported as “below the threshold”.

For the molecule SSRTRRETQL [HPV16-E6, P03126], the pKd entry is “below the threshold” in the assay with IL16_3, Q14005; 4.23 with RHPN1, Q8TCX5; 3.9 with LRRC7, Q96NW7 (setting [1]); “below the threshold” in the assay with GRIP2_5, Q9C0E4 (setting [1]); 4.23 in the assay with MAST1, Q9Y2H9; 4.91 with SNX27, Q96L92 (setting [1]). Also, the negative-log Kd (pKd) entry was “below the threshold” in the assay with FRMPD2_3, Q68DX3; “below the threshold” with NHERF4_2, Q86UT5 (setting [1]); “below the threshold” in the assay with GRID2IP_1, A4D2P6; 4.87 with TX1BP3, O14907 (setting [1]); 5.1 with DLG2_3, Q15700; “below the threshold” with HTRA2, O43464 (setting [1]). Further, the pKd entry with TJP1_3, Q07157 is “below the threshold”; in the assay with SNTG2, Q9NY99 (setting [1]), 4.45; with CASK, O14936 (setting [1]), “below the threshold”; in the assay with HTRA4, P83105 it was “below the threshold”; in the assay with LNX2_3, Q8N448 it was “below the threshold”; with GRIP2_3, Q9C0E4, “below the threshold”. The negative-log Kd (pKd) result with ARHGAP21, Q5T5U3 (setting [1]) is “below the threshold”; with LNX1_1, Q8TBB1 (setting [1]) it was 3.51; in the assay with PTPN13_1, Q12923 (setting [1]) it was 3.56; with LNX2_2, Q8N448 (setting [1]), “below the threshold”; in the assay with PARD3B_1, Q8TEW8 (setting [1]), “below the threshold”; with APBA2_2, Q99767 it was “below the threshold”.

For the molecule KSRVAFFEEL [NF2, P35240], the pKd with LRRC7, Q96NW7 (setting [2]) was 3.5; with GRIP2_5, Q9C0E4 (setting [2]), 3.54; with SNX27, Q96L92 (setting [2]), 3.7; with NHERF4_2, Q86UT5 (setting [2]), 3.66; with PDLIM1, O00151 (setting [2]), 3.76; in the assay with HTRA2, O43464 (setting [2]), 3.61. The pKd in the assay with SNTG2, Q9NY99 (setting [2]) was found to be 3.74; in the assay with LNX1_1, Q8TBB1 (setting [2]) it was 3.73; with PARD3B_1, Q8TEW8 (setting [2]) it was 3.83.

The record behind these values is PMC9482650, “Quantitative fragmentomics allow affinity mapping of interactomes” (Nature Communications, 2022).
